From article PMC9728176

Target: T1, His6-Fur (Escherichia coli) (UniProt P0A9A9)
T1 sequence: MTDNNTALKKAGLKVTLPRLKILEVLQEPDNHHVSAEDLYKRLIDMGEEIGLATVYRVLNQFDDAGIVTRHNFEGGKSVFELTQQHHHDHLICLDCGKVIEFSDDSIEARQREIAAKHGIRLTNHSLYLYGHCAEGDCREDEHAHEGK
Experiment: EMSA
Settings: EMSA: 10 mM Tris-HCl pH 7.5, 50 mM KCl, 0.5 mM DTT, 0.05 mg/ml BSA, 4% glycerin, 1 mM MgCl2, 0.1 mM MnCl2, 50 ug/ml poly(dI-dC), 10 ng probe, temperature not …

## GCGATATCACCGGTATAAGGGGCCAGCAGTTCCGCAGGGTCGAACTCTGCCAGATCTGCCAGCGCAACGAAGTTTTGCACCACCTGAATATCGCCCTGCACTTCCAGCTCACCACTGCGAATCAGTGCGGTAAGCTGCTGGCGATCGCGAAGTTTCGGCAACACACTGGCGTAGGCGATAACGGTGCA (double strand) [Biotin-PesrE (Biotin-S1V3)]
  binding: binds
